Results on seven molecules are retold here after paper PMC8189969, “Interaction standards for biophysics: anti-lysozyme nanobodies” (European Biophysics Journal, 2021).

The target in assay [1] is T1, hen egg white lysozyme (Gallus gallus (hen egg white), UniProt P00698).
T1 construct: hen egg white lysozyme (HEWL), 14.5 kDa, monomeric; The source is named for ITC (Roche powder); also called HEWL; source: bought: Roche (HEWL lysozyme powder, > 95%)
The assay can be described thus: SPR; Biacore T200; lysozyme amine-coupled (EDC/NHS) to a CM5 chip, max 100 units; nanobody as analyte, multi-cycle kinetics; PBS with 0.01% tween20; 20 °C (row labels of Table 1); Langmuir 1:1 model. The note with it: both partners purified. A general note: SPR reads the build-up and loss of mass on a sensor chip optically.

Assay [2] has as its target T1, hen egg white lysozyme. The assay can be described thus: ITC; Malvern PEAQ-ITC; 20 °C; PBS pH 7.4 with 0.005% tween 20; lysozyme in the cell and nanobody titrated (so in the source); nanobody 20 or 30 µM, lysozyme 200 or 300 µM; single site model. The note with it: both partners purified.
The target in assay [3] is H04 nanobody. The assay can be described thus: SEC-MALS; Superdex-75 10/300, 0.75 ml/min, PBS pH 7.4; Wyatt Helios 18-angle photometer, QELS, Optilab TrEX. For orientation: SEC sorts molecules by how far they enter the pores of the column.
The target of assay [4] is T1, hen egg white lysozyme. The assay can be described thus: SPR; Biacore T200; lysozyme amine-coupled (EDC/NHS) to a CM5 chip, max 100 units; nanobody as analyte, multi-cycle kinetics; PBS with 0.01% tween20; 20 °C (row labels of Table 1); Langmuir 1:1 model. The note with it: both partners purified. The source holds these as a separate data set.
Assay [5] deals with T1, hen egg white lysozyme. The assay is described as follows: ITC; Malvern PEAQ-ITC; 37 °C; PBS pH 7.4 with 0.005% tween 20; lysozyme in the cell and nanobody titrated (so in the source); single site model. Particulars: both partners purified.

T1 sequence (P00698 19-147): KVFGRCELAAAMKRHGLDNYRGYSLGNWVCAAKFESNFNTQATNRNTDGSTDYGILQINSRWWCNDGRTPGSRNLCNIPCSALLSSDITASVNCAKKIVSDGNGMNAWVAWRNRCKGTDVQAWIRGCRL

B1: H04 nanobody (VHH)
VHH: EVQLLESGGGLVQPGGSLRLSCAASGFRFDAEDMGWVRQAPGKGLEWVSSIYGPSGSTYYADSVKGRFTISRDNSKNTLYLQMNSLRAEDTAVYYCAKYTSPPQNHGFDYWGQGTLVTVSS
notes: crystal structure with lysozyme PDB 4U3X (Rouet et al. 2015); CDR3 of 12 residues; Developed in Daniel Christ's group (Rouet et al. 2015); source: E. coli T7-Express, purified (IMAC, Superdex-75)
As a reminder, the Kd is the concentration at which binding is half-saturated. A low value points to tighter binding. As a reminder, the koff is a measure of how fast the partners let go of each other. The kon is a measure of how fast the partners come together. A high value points to faster complex formation. As usually defined, the stoichiometry N is the number of molecules, sites or subunits per partner or assembly. In assay [1], B1 registered a Kd of 19 nM, a koff of 0.0008 s⁻¹ and an on-rate (kon) of 43000 M⁻¹ s⁻¹. Moreover, in assay [2], the Kd was found to be 24 nM and the dH is -17.6 kcal/mol. In assay [3], this molecule returned a stoichiometry N of 2.

B2: H04 H106A nanobody (VHH)
VHH: EVQLLESGGGLVQPGGSLRLSCAASGFRFDAEDMGWVRQAPGKGLEWVSSIYGPSGSTYYADSVKGRFTISRDNSKNTLYLQMNSLRAEDTAVYYCAKYTSPPQNAGFDYWGQGTLVTVSS
notes: as the chain of m2 (H04) with H106A in CDR3; source: E. coli T7-Express, purified (IMAC, Superdex-75)
For the molecule B2, in assay [1], the affinity, expressed as Kd, was 124 nM; the koff is 0.056 s⁻¹; the kon was determined as 450000 M⁻¹ s⁻¹. Further, in assay [2], the Kd was 296 nM and the dH is -17 kcal/mol. The same molecule returned a Kd in assay [4] of approximately 250 nM.

B3: Cab-Lys3 nanobody (VHH)
VHH: DVQLQASGGGSVQAGGSLRLSCAASGYTIGPYCMGWFRQAPGKEREGVAAINMGGGITYYADSVKGRFTISQDNAKNTVYLLMNSLEPEDTAIYYCAADSTIYASYYECGHGLSTGGYGYDSWGQGTQVTVSS
notes: crystal structure PDB 1XFP named for it (Muyldermans and Lauwereys 1999); CDR3 of 24 residues with an extra disulphide between CDR1 and CDR3; also called WT Cab-Lys3; source: E. coli T7-Express, purified (IMAC, Superdex-75)
In assay [1], B3 yielded a Kd of 5 nM, a koff of 0.0009 s⁻¹ and a kon of 41000 M⁻¹ s⁻¹. In assay [2], this molecule registered a Kd of 27 nM and a dH of 1.6 kcal/mol. In assay [5], this molecule gave a Kd of 5 nM and a dH of -4.02 kcal/mol.

B4: Cab-Lys3 T101S nanobody (VHH)
VHH: DVQLQASGGGSVQAGGSLRLSCAASGYTIGPYCMGWFRQAPGKEREGVAAINMGGGITYYADSVKGRFTISQDNAKNTVYLLMNSLEPEDTAIYYCAADSSIYASYYECGHGLSTGGYGYDSWGQGTQVTVSS
notes: as the chain of m6 (Cab-Lys3) with T101S in CDR3; source: E. coli T7-Express, purified (IMAC, Superdex-75)
For B4, in assay [1], the Kd turned out to be 135 nM, the koff was determined as 0.029 s⁻¹ and the kon is 160000 M⁻¹ s⁻¹. Further, in assay [2], binding was characterised by a dissociation constant (Kd) of 113 nM and the dH worked out at 3 kcal/mol. Also, in assay [5], the Kd was 105 nM and the dH was -5.1 kcal/mol.

B5: Cab-Lys3 S105N nanobody (VHH)
VHH: DVQLQASGGGSVQAGGSLRLSCAASGYTIGPYCMGWFRQAPGKEREGVAAINMGGGITYYADSVKGRFTISQDNAKNTVYLLMNSLEPEDTAIYYCAADSTIYANYYECGHGLSTGGYGYDSWGQGTQVTVSS
notes: as the chain of m6 (Cab-Lys3) with S105N in CDR3; source: E. coli T7-Express, purified (IMAC, Superdex-75)
With B5, in assay [1], the Kd was 35 nM, the koff worked out at 0.0028 s⁻¹ and the on-rate (kon) came to 79000 M⁻¹ s⁻¹. In assay [2], this molecule had a Kd of 125 nM and a dH of 2.6 kcal/mol. In addition, in assay [5], the Kd worked out at 73 nM and the dH is -3.3 kcal/mol.

B6: Phage-F07 nanobody (VHH)
VHH: EVQLQASGGGFVQPGGSLRLSCAASGTSSDLYDMGWFRQAPGKEREFVSAISGDDTQYTYYADSVKGRFTISRDNSKNTVYLQMNSLRAEDTATYYCAPRAHEPHGHWNYYWGQGTQVTVSS
notes: selected by phage display from the NaLi-H1 synthetic library (Hybrigenics); also called P-F07; source: E. coli T7-Express, purified (IMAC, Superdex-75)
B6: in assay [2], the affinity, expressed as Kd, was 685 nM and the dH is -23.5 kcal/mol.

B7: Phage-B09 nanobody (VHH)
VHH: EVQLQASGGGFVQPGGSLRLSCAASGSTYRRSTMGWFRQAPGKEREFVSAISSDHSHPDYYADSVKGRFTISRDNSKNTVYLQMNSLRAEDTATYYCAFQYDSDKKSYWGQGTQVTVSS
notes: selected by phage display from the NaLi-H1 synthetic library (Hybrigenics); also called P-B09; source: E. coli T7-Express, purified (IMAC, Superdex-75)
B7: in assay [1], the Kd is 1300 nM, the koff amounted to 0.6 s⁻¹ and the kon is 450000 M⁻¹ s⁻¹. In assay [2], this molecule yielded a Kd of 1430 nM and a dH of -14.5 kcal/mol.
